# Laboratory results reported in patent publication US8975370B2, “Inhibitor proteins of a protease and use thereof” (Universite de Lausanne, priority 2003, dated 2015).
# System: T1, Cc1cc(=O)oc2cc(NC(=O)[C@H](CCCNC(=N)N)NC(=O)[C@H](Cc3ccccc3)NC(=O)OCc3ccccc3)ccc12
# T1 construct: substrate Z-FR-AMC
# Assay: Km of PK for its fluorogenic substrate (used for ka correction, eq 2)
# Format: biochemical, human
# Conditions: other: PK, substrate Z-FR-AMC, kinetics in 50 mM Tris pH 7.5, 150 mM NaCl, 0.05% Triton X-100, 0.01% BSA, 25° C.
# Description: hK2 and hK3 (PSA) were purified from human semen as previously described (Frenette G, Gervais Y, Tremblay R R, Dube J Y. 1998 “Contamination of purified prostate-specific antigen preparations by kallikrein hK2” J Urol 159, 1375-8), anti-hK2 and anti-PSA monoclonal antibodies were a gift from Professor R R Tremblay, Laval University, Canada. Human chymotrypsin (Chtr), urokinase plasminogen activator (uPA), human kallikrein hK1, human plasma kallikrein (PK), human neutrophil elastase (HNE) and commercial ACT (human plasma α1-antichymotrypsin) were purchased from Calbiochem. […]
# The association rate constants for interactions of hK2, chymotrypsin, PK and HNE with different rACTs were determined under pseudo-first order conditions using the progress curve method (Morrison J F, Walsh C T. 1988 “The behavior and significance of slow-binding enzyme inhibitors” Adv. Enzymol. Relat. Areas Mol. Biol 61, 201-301). […] Each reaction was made in reaction buffer (50 mM Tris pH 7.5, 150 mM NaCl, 0.05% Triton X-100, 0.01% BSA) at 25° C. for 45 min and the rate of product formation was measured using a FLx800 fluorescence 96-well microplate reader (Biotek, USA). […]
# For each inhibitor, a kobs was calculated, for four different concentrations of inhibitors, by non linear regression of the data using equation 1. […]
# Chain of human plasma kallikrein (PK) (Homo sapiens) (chain, as listed by the source): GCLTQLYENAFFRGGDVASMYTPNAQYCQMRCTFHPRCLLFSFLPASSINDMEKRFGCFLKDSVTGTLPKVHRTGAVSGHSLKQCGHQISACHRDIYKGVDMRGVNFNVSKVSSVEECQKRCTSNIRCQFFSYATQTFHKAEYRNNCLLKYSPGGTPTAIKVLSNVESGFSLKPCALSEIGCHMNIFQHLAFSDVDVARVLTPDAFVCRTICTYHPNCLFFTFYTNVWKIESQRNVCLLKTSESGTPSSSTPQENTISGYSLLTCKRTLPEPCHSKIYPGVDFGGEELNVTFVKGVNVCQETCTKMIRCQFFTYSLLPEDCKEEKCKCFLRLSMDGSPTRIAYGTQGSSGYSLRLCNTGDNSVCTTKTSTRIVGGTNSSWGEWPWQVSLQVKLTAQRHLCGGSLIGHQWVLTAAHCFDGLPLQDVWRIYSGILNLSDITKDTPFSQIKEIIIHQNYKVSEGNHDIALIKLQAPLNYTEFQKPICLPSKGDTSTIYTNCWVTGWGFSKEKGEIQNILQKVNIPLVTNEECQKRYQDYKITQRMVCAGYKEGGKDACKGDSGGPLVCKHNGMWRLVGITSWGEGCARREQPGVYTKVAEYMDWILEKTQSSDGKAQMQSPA
substance,measurement,value
human plasma kallikrein (PK) (Homo sapiens),Km,170 µM
